Test results: patent US20240383994A1 (CHIA TAI TIANQING PHARMACEUTICAL GROUP, published 2024)

T1: CynoCD40-His protein (Acro, Cat. No.: CD0-C52H6) (cynomolgus monkey, UniProt P25942 21-193 (human entry))
T1 construct: Bought protein; also called cynomolgus monkey CD40 antigen; not shown: His tag
T1 chain: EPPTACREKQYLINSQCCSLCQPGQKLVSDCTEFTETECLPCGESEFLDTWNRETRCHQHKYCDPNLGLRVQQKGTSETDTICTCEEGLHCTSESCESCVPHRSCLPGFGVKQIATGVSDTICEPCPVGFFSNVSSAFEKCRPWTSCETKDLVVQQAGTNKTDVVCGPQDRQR


How the values were obtained:
[1] = target: T2, human CD40 (hCD40), full length, on cells (human, UniProt P25942 21-277); test: cell-based or functional assay
[2] = target: T2, human CD40 (hCD40), full length, on …; test: cell-based or functional assay; remark: listed apart in the source
[3] = target: T3, hCD40-His protein (Acro, Cat. No.: CD0-H5228) (human, UniProt P25942 21-193); test: BLI (Fortebio Octet RED96e), antibody captured on AHC sensor, antigen 1.56-100 nM, 1:1 model
T3 construct: Bought protein; also called human CD40 antigen; not shown: His tag
Protocol: (§1) The affinity of humanized anti-CD40 antibodies to an hCD40-His protein (Acro, Cat. No.: CD0-H5228) and a CynoCD40-His protein (Acro, Cat. No.: CD0-C52H6) was detected by a ForteBio molecular interaction system. Firstly, an AHC biosensor (Fortebio, Cat. No.: 18-5060) was activated, and then immersed in an anti-CD40 antibody solution at a final concentration of 5 μg/mL to capture the antibodies. Serially 2-fold diluted hCD40-His protein and CynoCD40-His protein in a final concentration range of 1.56 nM-100 nM were then […] the AHC biosensor. The response signals were detected in real time on a Fortebio molecular interaction system (Fortebio Octet RED96e) to give association and dissociation curves. After the completion of dissociation in each cycle, the AHC biosensor was regenerated for the next capture; the procedure was repeated until the affinity of the different antibodies for CD40 was determined. The resulting data were analyzed by Fortebio Data Analysis 11.0 software using a 1:1 (Langmuir) binding model to determine the Kₐ (Kₒₙ) and Kd (Kdis) values, and the dissociation constant KD was calculated by KD=Kd/Kₐ. See www.fortebio.com for more detailed detection procedures and related information.

[4] = target: T1, CynoCD40-His protein (Acro, Cat. No.: …); test: as above
Protocol: as §1

[5] = target: T2, human CD40 (hCD40), full length, on …; test: flow cytometry (MFI) on 293T-hCD40-NFκB cells, PE anti-human IgG detection
[6] = target: T2, human CD40 (hCD40), full length, on …; test: cell-based or functional assay; remark: listed apart in the source
hCD40-mFc = target: T4, hCD40-mFc (human); test: flow cytometry, blocking of hCD40-mFc (2 µg/mL) binding to CHO-K1-hCD40L cells
T4 construct: Prepared in-house in CHO cells; also called human CD40 recombinant protein containing a mouse antibody heavy chain Fc; Human CD40-mFc
Protocol: A CHO-K1-hCD40L cell suspension and a CHO-K1-CynoCD40L cell suspension at a cell concentration of 3×10⁵ cells/mL were separately added into a 96-well U-bottom plate at 100 μL/well. An hCD40-mFc protein at a final concentration of 2 μg/mL (prepared in-house, SEQ ID NO: 64) or a cynoCD40-mFc protein at a final concentration of 2 μg/mL (prepared in-house, SEQ ID NO: 65) was added correspondingly, before serially 2-fold diluted anti-CD40 antibodies in a final concentration range of 312.5 ng/ml-40000 ng/ml were added. The mixture was mixed well, and then incubated at 4° C. for 1 h. The cells were washed with PBS containing 2% of FBS, and then a PE-conjugated goat anti-mouse IgG (H+L) antibody (Abcam, Cat. No.: ab97041) diluted at a volume ratio of 1:500 was added, and the mixture was incubated at 4° C. for 0.5 h. The cells were washed with PBS containing 2% of […], and then resuspended in PBS containing 2% of FBS. The fluorescence signals were detected on a flow cytometer (Sartorius IQue3). The activity of anti-CD40 antibodies to block the binding of CHO-K1-hCD40L cells to an hCD40-mFc protein and CHO-K1-cynoCD40L cells to a cynoCD40-mFc protein was analyzed by the mean fluorescence intensity (MFI) of staining, and the IC₅₀ value was calculated by GraphPad Prism software.

MFI value (CD95 on Ramos cells), Fc crosslinking with anti-human IgG Fcγ antibody, 1 µg/mL antibody [1] | MFI value (CD95 on Ramos cells), Fc crosslinking with anti-human IgG Fcγ antibody, 10 µg/mL antibody [1] | IC50, inhibition of Ramos cell apoptosis induced by CD40L and IL-4 [2] | Inhibition, % of Ramos cell apoptosis at 0.0128 ng/mL [2] | Inhibition, % of Ramos cell apoptosis at 0.064 ng/mL [2] | Inhibition, % of Ramos cell apoptosis at 0.32 ng/mL [2] | Inhibition, % of Ramos cell apoptosis at 1.6 ng/mL [2] | Inhibition, % of Ramos cell apoptosis at 8 ng/mL [2] | Inhibition, % of Ramos cell apoptosis at 40 ng/mL [2] | Inhibition, % of Ramos cell apoptosis at 200 ng/mL [2] | Inhibition, % of Ramos cell apoptosis at 1000 ng/mL [2] | Kd [3] | koff [3] | kon [3] | Kd [4] | koff [4] | kon [4] | EC50 (read off the curve) [5] | IC50 (read off the curve); NF-κB luciferase reporter (RLU), 293T-hCD40-NFκB cells co-cultured 1:1 with CHO-K1-hCD40L cells [6] | IC50 (hCD40-mFc) | Binder
136000 MFI | 135000 MFI | – | – | – | – | – | – | – | – | – | – | – | – | – | – | – | – | – | – | CP-870893 (antibody, human IgG2, kappa, V domains shown) VH: not shown VL: DIQMTQSPSSVSASVGDRVTITCRASQGIYSWLAWYQQKPGKAPNLLIYTASTLQSGVPSRFSGSGSGTDFTLTISSLQPEDFATYYCQQANIFPLTFGGGTKVEIKR
– | – | 0.0119 nM | -10% | -8% | 16% | 31% | 90% | 90% | 84% | 70% | – | – | – | – | – | – | – | – | – | Chi-B03 (antibody, human IgG4 S228P, kappa, V domains shown) VH: EVKLVESGGGLVQPGGSLRLSCATSGFTFSDFYMEWVRQPPGKRLEWIAASRDKANDYTTEYSPSVQGRFIVSRDSSQSILYLQMNALRTEDTAIYYCARDVGRSYALDYWGQGTSVTVSS VL: QVVLTQSPAIMSASPGEKVTMTCSASSSVTYMHWYQQKSGTSPKRWIYVTSKLASGVPTRFSGSGSGTSYSLTISSMEAEDAATYYCQQWSRKPPTFGAGTKLELKR
– | – | – | – | – | – | – | – | – | – | – | 59.9 nM | 0.0484 s⁻¹ | 808000 M⁻¹ s⁻¹ | – | – | – | – | – | – | hzA01-1.2 (antibody, human IgG4 S228P, kappa, V domains shown, Humanized A01; also called hzA01L1 + hzA01H2) VH: QVQLVESGGGVVQPGRSLRLSCAASGFSLPTSGVHWVRQAPGKGLEWVAVIWAGGDTNYADSVKGRFTISRDNSKNTVYLQMNSLRAEDTAVYYCLGHGHFDVWGQGTLVTVSS VL: DIQMTQSPSSLSASVGDRVTITCRSSQSLVHSSGNTYLQWYQQKPGKAPGLLIYKVSNRFSGVPSRFSGSGSGTDFTLTISSLQPEDFATYYCSQTTHVPWTFGQGTKVEIKR
– | – | – | – | – | – | – | – | – | – | – | 113 nM | 0.101 s⁻¹ | 893000 M⁻¹ s⁻¹ | – | – | – | – | – | – | hzA01-2.2 (antibody, human IgG4 S228P, kappa, V domains shown, Humanized A01; also called hzA01L2 + hzA01H2) VH: QVQLVESGGGVVQPGRSLRLSCAASGFSLPTSGVHWVRQAPGKGLEWVAVIWAGGDTNYADSVKGRFTISRDNSKNTVYLQMNSLRAEDTAVYYCLGHGHFDVWGQGTLVTVSS VL: EIVLTQSPGTLSLSPGERATLSCRSSQSLVHSSGNTYLQWYQQKPGQAPRLLIYKVSNRFSGIPDRFSGSGSGTDFTLTISRLEPEDFAVYYCSQTTHVPWTFGQGTKVEIKR
– | – | 0.0301 nM | -24% | -33% | -12% | 2% | 55% | 93% | 96% | 93% | 7.66 nM | 0.00246 s⁻¹ | 321000 M⁻¹ s⁻¹ | – | – | – | – | – | – | Chi-B01 (antibody, human IgG4 S228P, kappa, V domains shown, also called chimeric B01) VH: QIQLVQSGPELKKPGETVKISCKASGYTFTNYGMNWVKQAPGKGLKWMGWINPYTGEPTYADDFKGRFAFSVETSASTAYLQINNLKNEDTATYFCARKPPFDYWGQGTTLTVSS VL: DIVMTQAAPSVPVTPGESVSISCRSSKSLLHSNGNTYLYWFLQRPGQSPQILIYRVSNLASGVPDRFSGSGSGTAFTLRISRVEAEDVGVYYCMQHVEYPFTFGSGTKLEIKR
– | – | 0.0275 nM | -18% | -16% | -5% | 5% | 59% | 92% | 88% | 75% | – | – | – | – | – | – | – | – | – | Chi-B02 (antibody, human IgG4 S228P, kappa, V domains shown) VH: EVQLQQSGPELVKPGASVKMSCKASGYTFTSYVMYWVKQKPGQGLEWIGYVNPYNDGTNYNEKFKGKATLTSDKSSSTAYMELSSLTSEDSAVYYCARGAMDYWGQGTSVTVSS VL: DIVMTQAAPSVPVTPGESVSISCRSSKSLLHSQGNTYLYWFLQRPGQSPQILIYRVSNLASGVPDRFSGSGSGTAFTLRISRVEAEDVGVYYCMQHVEYPFTFGSGTKLEIKR
– | – | – | – | – | – | – | – | – | – | – | 0.366 nM | 0.000601 s⁻¹ | 1.64e+06 M⁻¹ s⁻¹ | 0.365 nM | 0.000686 s⁻¹ | 1.88e+06 M⁻¹ s⁻¹ | ~2 ng/mL | ~0.6 ng/mL | 22.8 nM | hzA01-3.1 (antibody, human IgG4 S228P, kappa, V domains shown, Humanized A01; also called hzA01L3 + hzA01H1) VH: QVQLQESGPGLVKPSETLSLTCTVSGFSLPTSGVHWIRQPPGKGLEWIGVIWAGGDTNYNPSLKSRVTISKDNSKNQVFLKLSSVTAADTAVYYCLGHGHFDVWGQGTLVTVSS VL: DVVMTQSPLSLPVTLGQPASISCRSSQSLVHSSGNTYLQWYLQRPGQSPGLLIYKVSNRFSGVPDRFSGSGSGTDFTLKISRVEAEDVGVYYCSQTTHVPWTFGQGTKLEIKR
– | – | – | – | – | – | – | – | – | – | – | 0.808 nM | 0.00101 s⁻¹ | 1.25e+06 M⁻¹ s⁻¹ | 0.576 nM | 0.000923 s⁻¹ | 1.6e+06 M⁻¹ s⁻¹ | – | ~0.3 ng/mL | – | hzA01-1.1 (antibody, human IgG4 S228P, kappa, V domains shown, Humanized A01; also called hzA01L1 + hzA01H1) VH: QVQLQESGPGLVKPSETLSLTCTVSGFSLPTSGVHWIRQPPGKGLEWIGVIWAGGDTNYNPSLKSRVTISKDNSKNQVFLKLSSVTAADTAVYYCLGHGHFDVWGQGTLVTVSS VL: DIQMTQSPSSLSASVGDRVTITCRSSQSLVHSSGNTYLQWYQQKPGKAPGLLIYKVSNRFSGVPSRFSGSGSGTDFTLTISSLQPEDFATYYCSQTTHVPWTFGQGTKVEIKR
– | – | – | – | – | – | – | – | – | – | – | 1.76 nM | 0.00255 s⁻¹ | 1.45e+06 M⁻¹ s⁻¹ | 1.5 nM | 0.00282 s⁻¹ | 1.88e+06 M⁻¹ s⁻¹ | – | ~0.6 ng/mL | – | hzA01-2.1 (antibody, human IgG4 S228P, kappa, V domains shown, Humanized A01; also called hzA01L2 + hzA01H1) VH: QVQLQESGPGLVKPSETLSLTCTVSGFSLPTSGVHWIRQPPGKGLEWIGVIWAGGDTNYNPSLKSRVTISKDNSKNQVFLKLSSVTAADTAVYYCLGHGHFDVWGQGTLVTVSS VL: EIVLTQSPGTLSLSPGERATLSCRSSQSLVHSSGNTYLQWYQQKPGQAPRLLIYKVSNRFSGIPDRFSGSGSGTDFTLTISRLEPEDFAVYYCSQTTHVPWTFGQGTKVEIKR
– | – | – | – | – | – | – | – | – | – | – | 0.264 nM | 0.000454 s⁻¹ | 1.72e+06 M⁻¹ s⁻¹ | 0.262 nM | 0.000532 s⁻¹ | 2.03e+06 M⁻¹ s⁻¹ | ~2 ng/mL | ~0.6 ng/mL | 19.8 nM | hzA01-3.4 (antibody, human IgG4 S228P, kappa, V domains shown, Humanized A01; also called hzA01L3 + hzA01H4) VH: QVQLKESGPGLVKPSETLSLTCTVSGFSLPTSGVHWIRQPPGKGLEWIGVIWAGGDTNYNSALMSRVTISKDNSKSQVFLKMSSVTAADTAVYYCLGHGHFDVWGQGTLVTVSS VL: DVVMTQSPLSLPVTLGQPASISCRSSQSLVHSSGNTYLQWYLQRPGQSPGLLIYKVSNRFSGVPDRFSGSGSGTDFTLKISRVEAEDVGVYYCSQTTHVPWTFGQGTKLEIKR
